Consider two substances from paper PMC12512739.

Test [1] deals with Annexin A2 (endogenous, PK-15 cells) (pig (endogenous in PK-15)) (UniProt P19620).
The target is the same in test [2]. The source holds these as a separate data set.
The target in test [3] is Porcine circovirus type 2 (PCV2) virus particles (capsid of Cap) (porcine circovirus type 2 (genotype 2d, strain ChenZ-2-1)).
Test [4] concerns the target PCV2 virus-like particles (VLPs) assembled from the capsid protein (Cap) (porcine circovirus type 2 (genotype 2d, strain ChenZ-2-1)).

Chain of UniProt P19620 (P19620 whole entry): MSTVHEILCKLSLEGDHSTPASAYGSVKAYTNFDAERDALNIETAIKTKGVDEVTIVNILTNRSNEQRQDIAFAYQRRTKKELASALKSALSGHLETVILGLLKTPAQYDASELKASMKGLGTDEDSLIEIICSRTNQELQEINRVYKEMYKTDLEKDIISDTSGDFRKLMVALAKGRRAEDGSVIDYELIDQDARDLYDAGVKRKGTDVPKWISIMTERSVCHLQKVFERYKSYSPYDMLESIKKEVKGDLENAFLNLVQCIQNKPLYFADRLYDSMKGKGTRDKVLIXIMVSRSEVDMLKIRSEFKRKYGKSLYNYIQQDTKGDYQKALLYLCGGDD

Turning to “Porcine circovirus type 2 (PCV2) virus particles (capsid of Cap) (complex)”, in test [1], the decrease in PCV2 infectivity by IFA (Cap fluorescence) in PK-15 cells pretreated with ANXA2-specific polyclonal antibody, against control cells was found to be 30%; the reduction of viral genome copies in PK-15 cells at 36 hpi (qPCR) after pretreatment of the cells with anti-ANXA2 polyclonal antibody at 10 and 30 μg/mL amounted to 42.7%. Also, the reduction of PCV2 particles attached to PK-15 cells at 4 °C (qPCR) after pretreatment of the cells with ANXA2-specific antibody (30 μg/mL) in test [2] is 25.2%.

In test [3], “recombinant soluble full-length porcine ANXA2 with an N-terminal His-tag (pET-28a(+)) (from UniProt P19620 1-339) (natural protein)” displayed an inhibition of PCV2 attachment to PK-15 cells at 4 °C (bound virus by qPCR) after preincubation of PCV2 with rANXA2 (20 μg/mL); blocks PCV2 and cell surface ANXA2 of 32.7%. The decrease of PCV2 VLP binding to PK-15 cells at 4 °C (immunofluorescence with anti-Cap antibody, fluorescence intensity) after preincubation of VLPs with rANXA2 (20 μg/mL) in test [4] is 19.4%.
